Assay results as given in patent US11851498B2, “Anti-CD276 antibodies (B7H3)” (THE UNITED STATES OF AMERICA, as represented by THE …, priority 2014, dated 2023).
Entries after “also recorded” stand apart in the source; their conditions may differ.

Columns and labels:
[1] = test system: human CD276-AP fusion protein; assay: ELISA binding assay, human CD276; settings: scFv-Fc fusion protein in culture medium, serially diluted; CD276-AP coated at 2 μg/ml; FIG. 1A
Experimental: (§1) The scFv-encoding inserts of the unique clones were digested with SfiI and ligated into modified pSecTag bearing the same set of SfiI sites and Fc-Avi tag for soluble expression. These constructs were transfected into 293T cells for expression following the manufacturer's protocol. After 72 hr of growth, the scFv-Fc fusion proteins in the culture medium were used for the ELISA binding assay.
(§2) 50 μl of the diluted human (FIG. 1A) or mouse (FIG. 1B) CD276-AP fusion protein in PBS at 2 μg/ml was coated in a 96-well plate at 4° C. overnight. Transiently expressed scFv-Fc fusion protein in the culture medium was serially diluted and added into the target protein coated wells. After washing, a 1:3000 diluted horseradish peroxidase (HRP) conjugated goat anti-human IgG antibody was added for 1 hr at RT. After washing, 3, 3, 5, 5′-Tetramethylbenzidine (TMB) substrate was added, and the optical density (O.D.) was read at 450 nm.

[2] = test system: mouse CD276-AP fusion protein; assay: ELISA binding assay, mouse CD276; settings: scFv-Fc fusion protein in culture medium, serially diluted; CD276-AP coated at 2 μg/ml; FIG. 1B
Experimental: as §1, §2

[3] = biological target: T1, human CD276 Ecto-domain (Homo sapiens, UniProt Q5ZPR3); assay: Affinity determination by surface plasmon resonance (Biacore X100); format: binding; settings: scFv m8524; immobilized human CD276 soluble extracellular domain; 1:1 Langmuir fit; 25° C; FIG. 2
T1 construct: The human CD276 soluble extracellular domain was covalently immobilized onto a sensor chip (CM5)
T1 sequence (Q5ZPR3 29-466 limits assumed): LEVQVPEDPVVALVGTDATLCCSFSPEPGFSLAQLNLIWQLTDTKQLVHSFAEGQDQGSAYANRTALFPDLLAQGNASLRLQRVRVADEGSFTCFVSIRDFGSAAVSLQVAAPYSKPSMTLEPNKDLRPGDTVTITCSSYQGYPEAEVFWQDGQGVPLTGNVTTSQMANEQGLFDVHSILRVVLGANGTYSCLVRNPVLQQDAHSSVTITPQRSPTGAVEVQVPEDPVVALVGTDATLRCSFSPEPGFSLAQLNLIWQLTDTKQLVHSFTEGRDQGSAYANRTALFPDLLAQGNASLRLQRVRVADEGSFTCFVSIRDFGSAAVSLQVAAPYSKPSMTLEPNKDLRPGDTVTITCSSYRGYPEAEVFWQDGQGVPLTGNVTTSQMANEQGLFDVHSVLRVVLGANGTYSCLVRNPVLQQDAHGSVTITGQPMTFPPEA
Experimental: Binding affinities of human anti-CD276 scFv m8524 to human CD276 Ecto-domain were analyzed by surface plasmon resonance technology using a Biacore X100 instrument (GE healthcare). The human CD276 soluble extracellular domain was covalently immobilized onto a sensor chip (CM5) using carbodiimide coupling chemistry. A control reference surface was prepared for nonspecific binding and refractive index changes. For analysis of the kinetics of interactions, varying concentrations of […] were injected at a flow rate of […] using running buffer containing 10 mM HEPES, 150 mM NaCl, 3 mM EDTA, and 0.05% Surfactant P-20 (pH 7.4). The association and dissociation phase data were fitted simultaneously to a 1:1 Langumir global model, using the nonlinear data analysis program BIAevaluation 3.2. All of the experiments were done at 25° C. The affinity of the antibody m8524 (m276) (comprising a heavy chain comprising SEQ ID NO: 26 and a light chain comprising SEQ ID NO: 27) is shown in FIG. 2.

[4] = biological target: T2, human CD276 expressed on the cell surface (CHO-huCD276) (Homo sapiens, UniProt Q5ZPR3); assay: Flow cytometry binding to CHO cells expressing human CD276; format: cell-based; settings: scFv-Fc, 1 μg/100 μl, FIG. 4
T2 construct: expressed in transfected cells; host or cells: CHO cells
T2 sequence (Q5ZPR3 29-534): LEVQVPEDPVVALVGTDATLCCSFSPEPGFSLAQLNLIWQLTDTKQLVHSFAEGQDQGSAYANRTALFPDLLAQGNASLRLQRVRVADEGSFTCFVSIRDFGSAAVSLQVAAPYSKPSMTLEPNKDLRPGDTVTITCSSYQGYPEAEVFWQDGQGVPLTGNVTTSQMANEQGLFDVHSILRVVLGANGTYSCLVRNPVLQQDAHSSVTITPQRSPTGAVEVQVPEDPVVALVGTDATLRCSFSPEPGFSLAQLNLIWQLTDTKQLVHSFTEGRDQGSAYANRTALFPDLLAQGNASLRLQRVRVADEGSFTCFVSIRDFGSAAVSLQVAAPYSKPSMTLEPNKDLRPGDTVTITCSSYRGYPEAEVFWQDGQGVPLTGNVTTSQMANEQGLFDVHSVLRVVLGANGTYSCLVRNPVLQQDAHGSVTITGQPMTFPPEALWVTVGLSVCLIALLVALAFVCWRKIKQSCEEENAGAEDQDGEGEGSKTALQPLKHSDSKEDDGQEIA
Experimental: (§3) Chinese hamster ovary (CHO) cells were untransduced or transduced to express mouse CD276 or human CD276. The cells were cultured with 1 μg/100 μl of the anti-CD276 scFv-Fc m8524 (m276) (SEQ ID NOs: 26 and 27) (primary antibody) and fluorescein isothiocyanate (FITC) Gt anti-human antibody (H+L) (as a secondary antibody). The binding of the anti-CD276 scFv-Fc m8524 (m276) to mouse or human CD276 expressed on the cell surface was measured by flow cytometry.

[5] = biological target: T3, mouse CD276 expressed on the cell surface (CHO-msCD276) (Mus musculus, UniProt Q8VE98); assay: Flow cytometry binding to CHO cells expressing mouse CD276; format: cell-based; settings: scFv-Fc, 1 μg/100 μl, FIG. 4
T3 construct: expressed in transfected cells; host or cells: CHO cells
T3 sequence (Q8VE98 29-316): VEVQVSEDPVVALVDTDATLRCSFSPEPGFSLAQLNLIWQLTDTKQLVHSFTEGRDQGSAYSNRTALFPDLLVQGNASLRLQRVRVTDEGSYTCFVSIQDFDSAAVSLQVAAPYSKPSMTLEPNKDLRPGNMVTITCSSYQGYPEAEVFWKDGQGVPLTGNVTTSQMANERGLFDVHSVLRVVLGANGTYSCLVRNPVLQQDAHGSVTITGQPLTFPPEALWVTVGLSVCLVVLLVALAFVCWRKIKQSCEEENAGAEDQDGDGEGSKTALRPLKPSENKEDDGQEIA
Experimental: as §3

[6] = test system: HEK 293 cells (293); assay: Cell viability of untransduced HEK 293 cells
Experimental: (§4) HEK 293 cells (293) or HEK 293 cells transduced with CD276 (293/CD276) were treated with MMAE alone, m8524 (m276) (SEQ ID NOs: 26 and 27) antibody alone, m825 (irrelevant control antibody)-ADC, or m8524-ADC. The drug of the ADCs was MMAE.

[7] = test system: 293/CD276 cells; assay: Cell viability of HEK 293 cells transduced with CD276
Experimental: as §4

[8] = biological target: T4, human CD276 expressed on the surface of HEK 293 cells (293/CD276) (Homo sapiens, UniProt Q5ZPR3); assay: Flow cytometry binding to HEK293 cells transduced with human CD276; format: cell-based; settings: FITC-labeled IgG1; FIG. 5
T4 construct: expressed in transfected cells; host or cells: HEK293 cells
T4 sequence (Q5ZPR3 29-534): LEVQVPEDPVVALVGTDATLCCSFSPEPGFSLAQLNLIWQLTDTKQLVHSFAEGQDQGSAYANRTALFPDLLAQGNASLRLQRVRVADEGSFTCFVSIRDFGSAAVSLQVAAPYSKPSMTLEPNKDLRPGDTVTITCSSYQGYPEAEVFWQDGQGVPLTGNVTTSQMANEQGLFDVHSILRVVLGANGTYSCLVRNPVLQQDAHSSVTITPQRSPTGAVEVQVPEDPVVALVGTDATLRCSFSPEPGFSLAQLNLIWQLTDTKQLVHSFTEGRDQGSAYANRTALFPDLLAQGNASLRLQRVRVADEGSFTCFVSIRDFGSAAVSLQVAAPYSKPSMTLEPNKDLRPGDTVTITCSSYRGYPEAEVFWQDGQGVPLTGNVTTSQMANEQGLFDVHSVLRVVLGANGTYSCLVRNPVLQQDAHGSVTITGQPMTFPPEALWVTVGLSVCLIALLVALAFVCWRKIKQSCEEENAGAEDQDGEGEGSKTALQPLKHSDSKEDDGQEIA
Experimental: HEK293 cells were untransduced or transduced to express human CD276. The cells were cultured with FITC-labeled human anti-CD276 antibody m8524 IgG1 (SEQ ID NOs: 26 and 27). The binding of the FITC-labeled human anti-CD276 antibody m8524 IgG1 to human CD276 expressed on the cell surface was measured by flow cytometry.

[9] = test system: Pan02 pancreatic adenocarcinoma tumors, tumor vasculature and normal tissues; assay: In vivo localization of FITC-labeled antibody after IP injection into Pan02 tumor-bearing mice (immunofluorescence); settings: FITC-labeled IgG1 IP; for localization/staining in tumor (tumor cells and tumor vasculature): co-stain anti-CD31/anti-Meca32
Experimental: CD276 KO mice and CD276 WT mice each bearing Pan02 pancreatic adenocarcinoma tumors were injected (IP) with FITC-labeled 8524 IgG1 (SEQ ID NOs: 26 and 27) and anti-CD31/anti-Meca32. Anti-Meca32 is a monoclonal antibody with specificity for mouse endothelium.
CD276-positive, Pan02 pancreatic adenocarcinoma tumor-bearing, CD276 KO mice were injected (IP) with FITC-labeled 8524 IgG1 (SEQ ID NOs: 26 and 27) (green staining) and anti-CD31/anti-Meca32 (red staining). CD31/Meca32 positive vessels were stained red. Human tumor cells were stained green. Separate photographic images of the green and red staining were taken, and the images of the red and green staining were merged to provide a third image wherein co-localization of red and green staining provided a yellow signal.
CD276-positive, Pan02 pancreatic adenocarcinoma tumor-bearing, CD276 WT mice were injected (IP) with FITC-labeled 8524 IgG1 (SEQ ID NOs: 26 and 27) (green staining) and anti-CD31/anti-Meca32 (red staining). CD31/Meca32 positive vessels were stained red. Human tumor cells were stained green. Separate photographic images of the green and red staining were taken, and the images of the red and green staining were merged to provide a third image wherein co-localization of red and green staining provided a yellow signal.
CD276 KO mice and CD276 WT mice each bearing Pan02 pancreatic adenocarcinoma tumors were injected (IP) with FITC-labeled 8524 IgG1 (SEQ ID NOs: 26 and 27) and anti-CD31/anti-Meca32. CD31/Meca32 positive vessels in the normal liver of both CD276 KO and CD276 WT mice and in the tumor vasculature of CD276 WT mice were stained red. Human tumor cells and tumor vasculature were stained green in the CD276 WT mice. Separate photographic images of the green and red staining in the tumor of CD276 WT mice were taken, and the images of the red and green staining were merged to provide a third image wherein co-localization of red and green staining provided a yellow signal. […] The yellow signal indicated the co-localization of the CD31/Meca32 staining (red) with the CD276 staining (green).
CD276 WT mice bearing Pan02 pancreatic adenocarcinoma tumors were injected (IP) with FITC-labeled 8524 IgG1 (SEQ ID NOs: 26 and 27) and anti-CD31/anti-Meca32. CD31/Meca32 positive vessels in normal tissues, including the brain, heart, intestines, liver, muscle, spleen, and stomach of the CD276 WT mice were stained red. Pan02 tumors served as a positive control for the staining of all normal tissues. CD31/Meca32 positive vessels in the tumor vasculature of CD276 WT mice were also stained red. Human tumor cells and tumor vasculature were stained green in the CD276 WT mice. […]

[10] = test system: MC38 (colon cancer) tumor / normal liver margin; assay: Co-immunofluorescence post-staining of intrahepatic MC38 tumors at the normal liver/tumor margin; settings: MC38 tumor-bearing WT mice; samples post-stained with FITC-labeled IgG1; FIG. 6B
Source text: Samples of the normal liver/tumor margin of MC38 (colon cancer)-tumor bearing, WT mice were post-stained with FITC-labeled human anti-CD276 antibody (m8524 IgG1) (SEQ ID NOs: 26 and 27) (FIG. 6B) or laminin (FIG. 6A). Photographic images were taken.

[11] = CD276 WT mice bearing Pan02 tumors

Molecule | binding to human CD276 (OD at 450 nm, ELISA) [1] | binding to mouse CD276 (OD at 450 nm, ELISA) [2] | Kd [3] [pM] | binding to human CD276 expressed on the cell surface (flow cytometry) [4] | binding to mouse CD276 expressed on the cell surface (flow cytometry) [5] | cytotoxicity (cell viability, % of control) [6] | cytotoxicity (cell viability, % of control) [7] | binding to CD276-transfected 293 cells as compared to non-transfected parent 293 cells (flow cytometry) [8] | staining of normal liver ([9]; CD276 WT and CD276 KO mice bearing Pan02 tumors) | staining of normal tissues (brain, heart, intestines, liver, muscle, spleen, stomach) [9, 11] | localization/staining in tumor (tumor cells and tumor vasculature) [9, 11] | localization/staining in tumor (tumor cells and tumor vasculature) ([9]; CD276 WT mice bearing Pan02 tumors, listed as 8524 IgG1) | staining at the normal liver/tumor margin [10]
m8524: anti-CD276 antibody clone, heavy chain comprising SEQ ID NO: 26 and light chain comprising SEQ ID NO: 27 (antibody, V domains shown) VH: QVQLQQSGAEVKKPGSSVKVSCKASGGTFSSYAISWVRQAPGQGLEWMGGIIPILGIANYAQKFQGRVTITADESTSTAYMELSSLRSEDTAVYYCARGGSGSYHMDVWGKGTTVTVSS VL: EIVLTQSPATLSLSPGERATLSCRASQSVSSYLAWYQQKPGQAPRLLIYDASNRATGIPARFSGSGSGTDFTLTISSLEPEDFAVYYCQQRSNWPPRITFGQGTRLEIK | bound | bound | 49 | bound | bound | resistant to killing | resistant to killing | – | – | – | – | – | –
m8524 IgG1: human anti-CD276 antibody m8524 in IgG1 format (SEQ ID NOs: 26 and 27), FITC-labeled (antibody, V domains shown, FITC label) VH: QVQLQQSGAEVKKPGSSVKVSCKASGGTFSSYAISWVRQAPGQGLEWMGGIIPILGIANYAQKFQGRVTITADESTSTAYMELSSLRSEDTAVYYCARGGSGSYHMDVWGKGTTVTVSS VL: EIVLTQSPATLSLSPGERATLSCRASQSVSSYLAWYQQKPGQAPRLLIYDASNRATGIPARFSGSGSGTDFTLTISSLEPEDFAVYYCQQRSNWPPRITFGQGTRLEIK | – | – | – | – | – | – | – | increased binding | not the normal liver | did not stain any of the normal tissues | co-localization; also recorded: localized to both human tumor cells and tumor vasculature; also recorded: stained tumor cells and tumor vasculature | stained tumor cells (green) and tumor vasculature | stained tumor cells but not normal tissue
